{"source": "patent US20260209365A1", "about": "“ANTI-COMMON GAMMA CHAIN PROTEINS AND COMPOSITIONS OF MATTER” (SINOMAB BIOSCIENCE LIMITED, priority 2023, published 2026)", "format_in_all_cases": "cell-based, human", "key": {"[1]": {"system": "cleaved caspase 3 and μ-H2AX", "test": "Western blot of cleaved caspase 3 and μ-H2AX in Ramos", "conditions": "IL-4 10 ng/ml; 33 nM", "description": "Levels of cleaved caspase 3 (apoptotic protein) and μ-H2AX (DNA damage marker) were investigated by western blot in the Ramos B cells treated in the same paradigm. In brief, total proteins were extracted from the Ramos cells in RIPA lysis buffer supplemented with Halt™ Protease and Phosphatase Inhibitor Cocktail. Proteins were denatured and separated through electrophoresis and blotted on the nitrocellulose membrane. The membrane was blocked with 5% nonfat milk diluted in TBST, then incubated with primary antibodies diluted in 5% BSA/TBS T at 4° C. overnight in a rotating wheel. Next day, membrane was washed with PBST and incubated with secondary antibodies diluted in 5% milk/TBST for an hour at RT. Intensities of protein bands were determined using ECL substrate kit in the ChemiDoc Imaging System."}, "CD23 expression": {"system": "CD23 expression", "test": "qRT-PCR of CD23 expression in Ramos", "conditions": "IL-4 10 ng/ml, 24 hours, 33 nM", "description": "Genes related to the B cell functions were investigated by quantitative real-time PCR (qRT-PCR). In brief, Ramos cells were starved in serum-free RPMI1640 medium for 24 hours and then treated with 10 ng/ml IL-4 or IL-21 for 24 hours. Total RNA was extracted by RNAzol following manufacturer's protocol. Reverse transcription was performed in 500 ng of total RNA using PrimeScript RT reagent kit and the gene expression was analyzed by quantitative real-time PCR using TB Green Premix Ex Taq in Lightcycler® 480 Real-Time PCR System. Housekeeping gene GAPDH was used for normalization."}, "granzyme A secretion": {"system": "granzyme A secretion", "test": "Granzyme A secretion from KHYG-1, ELISA", "conditions": "3 days, 33 nM", "description": "To test the efficacies of anti-γc antibodies, proliferation and granzyme A secretion were chosen as the experimental models. In brief, KHYG-1 was seeded into either 48- or 96-well plates and starved in non-IL-2 supplemented medium overnight. After replenishment with new medium, KHYG-1 was pre-incubated with anti-γc antibodies or ritlecitinib for an hour before the administration of γc cytokines for 3 days. Proliferation rate was determined by the addition of WST-8 reagent while the secretion of granzyme A was estimated by ELISA measurement."}, "[2]": {"system": "granzyme and IFNγ secretion", "test": "Secretion of granzymes and IFNγ from PBMC culture, ELISA", "description": "Activation of T and NK cells in the PBMC culture could be studied by granzyme and IFNγ secretion [Carlin et al., Blood., 2005; 106 (12): 3874-9; Grossman et al., Blood., 2004; 104 (9): 2840-8; Keppel et al., J Immunol., 2015; 194 (4): 1954-1962; Tamang et al., Cytokine., 2006; 36 (3-4): 148-59]. Similar results are obtained in-house that IL-2 and IL-15 but not IL-21 could trigger secretion of granzyme A and IFNγ in PBMC culture (FIG. 15A-B).\nAntibodies or ritlecitinib were added into the PBMC culture to investigate their inhibitory effects in the presence of IL-2 or IL-15 treatment.\nReleases of cytolytic agents from PBMC culture were further evaluated by ELISA assays."}, "[3]": {"system": "IL-15 induced STAT5 phosphorylation", "test": "Inhibition of IL-15 induced STAT phosphorylation in KHYG-1 NK cell line, flow cytometry", "conditions": "ScFv 10 μg/ml", "description": "(§1) Cells were harvested and stained with FITC conjugated anti-pSTAT6, PE conjugated anti-pSTAT3 or APC con jugated anti-pSTAT5 antibodies for flow cytometry analyses. In some embodiments, the purified ScFv could block the IL-4 induced STAT6 phosphorylation in cell culture (e.g., Ramos). In some embodiments, the purified ScFv could block the IL-7 induced STAT5 phosphorylation in cell culture (e.g., HPB-ALL). In some embodiments, the purified ScFv could block the IL-9 induced STAT3 phosphorylation in cell culture (e.g., Jurkat). In some embodiments, the purified ScFv could block the IL-15 induced STAT5 phosphorylation in cell culture (e.g., KHYG-1). In some embodiments, the purified ScFv could block the IL-21 induced STAT3 phosphorylation in cell culture (e.g., Ramos).\n(§2) Flow cytometry was employed to measure the percentage of p-STAT expressing cells after cytokine induction and anti-γc ScFv treatment. KHYG-1 (Creative Bioarray, Shirley, NY 11967, USA) was starved in IL-2 free RPMI1640 (ATCC modification, ThermoFisher Scientific, Waltham, MA, USA) with 10% FBS (ThermoFisher Scientific) for 2 days. Ramos, HPB-ALL and Jurkat cell lines were used directly without starvation. Cells were replenished with fresh RPMI1640 medium and pretreated with anti-γc ScFv (10 μg/mL) for an hour. After treatment with TL-4 (10 ng/ml, Sino Biological), IL-7 (50 ng/ml, Sino Biological), IL-9 (50 ng/ml, Sino Biological), IL-15 (10 ng/ml, Sino Biological) or IL-21 (10 ng/ml, Sino Biological) for 15 min, cells were fixed in 4% paraformaldehyde (PFA, Sigma, St. Louis, Missouri, USA) for 10 min, permeabilized in 0.1% Triton X-100 (Sigma) for 10 min and then stained with FITC conjugated anti-pSTAT6, PE conjugated anti-pSTAT3 or APC con jugated anti-pSTAT5 (all diluted in 1:100, Biolegend, San Diego, California, USA) for 30 min at 37° C. Percentage of p-STAT expressing cells was measured by BD FACSLyric™ Clinical Flow Cytometry System (BD Biosciences, New Jersey, USA). Data were analyzed by Flowjo (version 10, BD).\n(§3) Different cell lines were used for testing. KHYG-1 refers to the NK cell line harvested from the peripheral blood of a person with aggressive NK cell leukemia. This cell line could respond to IL-2 and IL-15 stimulation in-vitro [Yamasaki et al., Leuk Res., […]; 28 (10): 1023-31]. Ramos is a human Burkitts Lymphoma cell line (CRL-1596™) and could be used as a model for IL-4 and IL-21 studies [Hui et al., Front Immunol., 2022; 13: 919854]. Jurkat is a human T lymphoblast cell line (Clone E6-1, TIB-152™) and is widely used in the T cell studies of IL-9 function. HPB-ALL is a T cell leukemia model established from the peripheral blood of a child with ALL and thymoma at diagnosis in 1973 and could be used for IL-7 functional studies."}, "[4]": {"system": "IL-4 induced STAT6 phosphorylation", "test": "Inhibition of IL-4 induced STAT phosphorylation in Ramos B cell line, flow cytometry", "conditions": "ScFv 10 μg/ml", "description": "as §1, §2, §3"}, "[5]": {"system": "IL-21 induced STAT3 phosphorylation", "test": "Inhibition of IL-21 induced STAT phosphorylation in Ramos B cell line, flow cytometry", "conditions": "ScFv 10 μg/ml", "description": "as §1, §2, §3"}, "[6]": {"system": "IL-7 induced STAT5 phosphorylation", "test": "Inhibition of IL-7 induced STAT5 phosphorylation in HPB-ALL T cell line, flow cytometry", "conditions": "ScFv 10 μg/ml", "description": "as §1, §2, §3"}, "[7]": {"system": "IL-9 induced STAT3 phosphorylation", "test": "Inhibition of IL-9 induced STAT3 phosphorylation in Jurkat T cell line, flow cytometry", "conditions": "ScFv 10 μg/ml", "description": "as §1, §2, §3"}, "[8]": {"system": "STAT phosphorylation induced by 6 γc cytokines", "test": "Flow cytometry of p-STAT with full-length anti-γc antibodies in multiple cell lines", "conditions": "IL-2, IL-15 in KHYG-1; IL-4, IL-21 in Ramos; IL-7 in HPB-ALL; IL-9 in Jurkat; cytokines 10 ng/ml; 33 nM (5 μg/ml)", "description": "Flow cytometry was employed to measure the percentage of p-STAT expressing cells after cytokine induction and anti-γc antibody treatment as previously described. IL-2 and IL-15 were tested in KHYG-1 NK cell line; IL-4 and IL-21 were tested in Ramos B cell line; IL-7 was tested in HPB-ALL T cell line; and IL-9 was tested in Jurkat T cell line."}, "Ramos B cells": {"system": "Ramos B cells", "test": "WST-8 proliferation assay, IL-4/IL-21 rescue of anti-IgM induced cell death", "conditions": "chimeric antibodies; 33 nM; IL-4/IL-21 10 ng/ml; 48 hours", "description": "The effects of anti-γc antibodies in blocking IL-4 and IL-21 rescues of Ramos cell death after anti-IgM induced hyperactivation were investigated by WST-8 proliferation assay. In brief, Ramos cells (50000 cells in 100 l) were seeded into 96-well plate and stabilized at 37° C. for an hour. Cells were pretreated in anti-γc antibodies or ritlecitinib for an hour, followed by incubation of IL-4 (10 ng/ml) or IL-21 (10 ng/ml) and anti-IgM (2 ug/ml, #109-006-129, Jackson ImmunoResearch). Aft er 48 hours, 10 μl WST-8 reagent (ab228554, Abcam) was added to each well and incubated for 4 hours.\nWST-8 could be reduced by cellular dehydrogenases to an orange formazan product, which the amount of formazan produced is directly proportional to the number of living Ramos cells. Optical density (OD) of each well was measured by absorbance at 450 nm using Varioskan LUX Multimode Microplate Reader (ThermoFisher Scientific)."}}, "data": [{"molecule": "C=CC(=O)N1C[C@H](Nc2ncnc3[nH]ccc23)CC[C@@H]1C", "note": "[ritlecitinib]", "values": [{"measurement": "block of IL-4 protective effects, μ-H2AX re-induced", "setting": "[1]", "value": "could block IL-4 protective effects"}, {"measurement": "suppression of IL-4 induced CD23 expression", "setting": "CD23 expression", "value": "significantly suppress IL-4 induced CD23 expression"}, {"measurement": "suppression of IL-2, IL-15 and IL-21 induced granzyme A secretion", "setting": "granzyme A secretion", "value": "significantly suppress IL-2, IL-15 and IL-21 induced granzyme A secretion"}, {"measurement": "suppression of IL-2 and IL-15 induced secretion of granzyme A and IFNγ", "setting": "[2]; IL-2, IL-15 20 ng/ml, three days, 33 nM", "value": "significantly reduced"}, {"measurement": "suppression of granzyme B secretion", "setting": "[2]; IL-2 or IL-15, 33 nM, humanized antibodies", "value": "superior suppression to granzyme B secretion"}]}, {"molecule": "SM-05F: anti-γc antibody, full-length chimeric; CDR SEQ ID NO: 84, 86, 88, 92, 94, 96 (antibody, V domains shown) VH: EVQLQQSGPELVKPGASVKIFCKTSGYTFTEYTMHWVKQSHGESLEWIGGIDPNTGGVTYNQKFKGKATLTADKSSSTAYMELRSLTSEDSAVYYCARRRRYYGYALDYWGQGTSVTVSS VL: DVLMTQTPLSLPVSLGDQASISCRSSQSIVHNNGNTYLEWYLQKPGQSPKLLIYKVSNRFFGVPDRFSGSGSGTYFTLKISRVEAEDLGVYYCFQGSHVPWTFGGGTKLEIKR", "values": [{"measurement": "p-STAT5 inhibition (%)", "setting": "[3]", "value": 43.73, "unit": "%"}, {"measurement": "p-STAT6 inhibition (%)", "setting": "[4]", "value": 45.99, "unit": "%"}, {"measurement": "p-STAT3 inhibition (%)", "setting": "[5]", "value": 78.97, "unit": "%"}, {"measurement": "p-STAT5 inhibition (%)", "setting": "[6]", "value": 99.42, "unit": "%"}, {"measurement": "p-STAT3 inhibition (%)", "setting": "[7]", "value": 92.36, "unit": "%"}, {"measurement": "block of STAT phosphorylation", "setting": "[8]", "value": "barely demonstrated strong inhibitory effects"}, {"measurement": "block of IL-4 and IL-21 rescue of anti-IgM induced cell death (WST-8)", "setting": "Ramos B cells", "value": "could block the effects of IL-4 and IL-21"}]}]}
